Experiment: soluble on expression in E. coli; label from the status in PepcDB or PDB records

Sequence | soluble on expression in E. coli
MNRWEKELDKYAELAVKVGVNIQPGQTLFVNAPLEAAPLVRKIAKTAYETGAKHVYVEWNDEALTYIKFHHAPEEAFSEYPMWRARAMEELAEQGAAFLSIYAPNPDLLKDVDPKRIATANKTAAQALANYRSAIMADRNCWSLISVPTPAWAQKVFGDLRDEEAIDKLWEAIFRITRIDHDDPIAAWRKHNDRLARIVDYLNNKQYKQLVYEAPGTNLTVELVDGHVWHGGAATSQSGVRFNPNIPTEEVFTMPHKDGVNGTVRNTKPLNYNGNVIDGFTLTFKDGQVVDFSAEQGYETLKHLLDTDDGARRLGEVALVPHQSPVSLSNLIFYNTLFDENAACHLALGKAYPTNIENGASLSKEELDRRGVNDSLVHVDFMIGSADLNIDGVTKDGKREPIFRSGNWAFELS | not soluble
MGSDKIHHHHHHMLILRARWWTNMCLICQRIDLIKKEENPYFVKELETGYLVVGDHQYFEGYSLFLAKEHVSELHHLKKETRLRFLEEMSLVQEAVAKAFAAEKMNIELLGNGDAHLHWHLFPRRTGDMNGHGLKGRGPVWWVPFEEMTAETCQAKPDEIKRLVKRLSSEVDKLLEIKE | not soluble
MPKSLYNYHEFIHLSHDGRIPFEKIEVPKNAILLNNSADLDNYVYLIIDGYVALFLNDGKEQPKIYSIQGEGAFLNYFTLLDHSINRFRYKTLSKCFLYRYSKLDIEYFLSMFPENFGFQFFIMKNQTTHIYFKSLMASSPASEKLMLTFSNLARLHGIPTEDDTVILPPAIKTSHLLSYSNLSKSCFYKDLQYLKTTNQIEKQDNSWIIHNKELNLMLQNGETYI | not soluble
MPARRSAARIDFAGSPRPTLGVEWEFALVDSQTRDLSNEATAVIAEIGENPRVHKELLRNTVEIVSGICECTAEAMQDLRDTLGPARQIVRDRGMELFCAGTHPFARWSAQKLTDAPRYAELIKRTQWWGRQMLIWGVHVHVGIRSAHKVMPIMTSLLNYYPHLLALSASSPWWGGEDTGYASNRAMMFQQLPTAGLPFHFQRWAEFEGFVYDQKKTGIIDHMDEIRWDIRPSPHLGTLEVRICDGVSNLRELGALVALTHCLIVDLDRRLDAGETLPTMPPWHVQENKWRAARYGLDAVIILDADSNERLVTDDLADVLTRLEPVAKSLNCADELAAVSDIYRDGASYQRQLRVAQQHDGDLRAVVDALVAELVI | soluble
TSADGLKLVANYLEAPSPSNTTIILAHGYRGKSGKVEMAGLARMYNQKFGYNVLMPDARAHGESEGKNIGFGWPERKDYVQWTNQVLDKNGDDTEIVLHGVSMGSSTVLMTSAEKLPKQVKSIIADCGYTSMDAELAYQLKAMFHLPKFPIIPMASLINKVKEGFFFSEASAINAVAETDLPIFYIHGDSDAFVPTSMVEELYDATKSYKEKWVVKGAEHGQAFTVEPETYEEKVRQFLTKTM | not soluble
MQEKIYQVAVGLIPGVGAATTKTLISYCGCAEQIFKTPKGKLKNIPGIGAVTVDNIYSASVLHEAESIVERAQKLDTQLLFYTDPDYPNRLKQIPDAPTLLYYKGSSALNPPKSIAIVGTRKATEYGRSVVRKLLEEIASYKPLVVSGLAYGIDIQAHRDALELGLETIGVMANGTNIIYPSVHKNTALKMLEQGGLLSEYTFDSIAEPMRFPARNRIIAGMTDATIVIEATQSGGALITAEIADSYDREVLAVPGRITDMASEGCNNLIKQNKAHALTSAADLIELLNWDITPSQQAHKHIILADLEEDELMIYAVLTDNEGIHIDELSWKSQLSMQKISSVLLEMEFKGIVKALPGKKFSLR | not soluble
MEVARGLEGVLFTESRMCYIDGQQGKLYYYGIPIQELAEKSSFEETTFLLLHGRLPRRQELEEFSAALARRRALPAHLLESFKRYPVSAHPMSFLRTAVSEFGMLDPTEGDISREALYEKGLDLIAKFATIVAANKRLKEGKEPIPPREDLSHAANFLYMANGVEPSPEQARLMDAALILHAEHGFNASTFTAIAAFSTETDLYSAITAAVASLKGPRHGGANEAVMRMIQEIGTPERAREWVREKLAKKERIMGMGHRVYKAFDPRAGVLEKLARLVAEKHGHSKEYQILKIVEEEAGKVLNPRGIYPNVDFYSGVVYSDLGFSLEFFTPIFAVARISGWVGHILEYQELDNRLLRPGAKYVGELDVPYVPLEARE | soluble
MEIYHQYIKLRKQFGRFPKFGDEGSEMLADIRPNEDHGKEYIPRNPVTTVTQCVPEMSEHEANTNAVILVNKAMSHVEGGWPKDVDYTEAEHTIRYRKKVEKDEDYIRTVVQLGSSVEDLIKQNNAVDIYQEYFTNVTMDHTSEAPHVKTVTVFKDPNNIKRSASYVNWHPDGSVPKVVVAYSILQFQQQPAGMPLSSYIWDVNNPNTPEYEMVPTSQICCAKFNLKDNNLVGAGQYNGQLAYFDVRKGNGPVEATPIDISHRDPIYDFAWLQSKTGTECMTVSTDGNVLWWDLRKMNECVENMPLKEKNSETTVGGVCLEYDTNAGPTNFMVGTEQGQIFSCNRKAKNPVDRVKYVLSGHHGPIYGLRRNPFNSKYFLSIGDWTARVWVEDTAVKTPILTTKYHPTYLTGGTWSPSRPGVFFTIKMDGAMDVWDLYYKHNEPTLTVQVSDLALTAFAVQESGGTVAVGTSDGCTSVLQLSTGLSEASPAEKANINAMFERETTREKNLEKAIKEAKVKARKEQGRRDEVKDNVTEEQLKALEDEFFKTTDPAVGGGYGAGEGAAAE | not soluble
MASQPTNAVSAEQLMLSKMQAMQAQVQPPEFIVSANPLDQQALNAPLSFSQAMTNVLDTVNQHQSAASQKMTAVETGQSDDLVGAMVASQKASLSFNALMQVRNKVVASFEDIMKMPV | not soluble
MFGWRGRIGLIVPSSNTTMEMELHSFLPEGVSLHTSRMPLKSITDEELFKMNSYAIEAASLLADAGVEVIAFGCSSGSFIGGQDFEKELEMKIEEEVNIETFTTSTAVLEALDVLDAQSLLIVTPYSDEINQKEKEFLEGNGFEVLDIKGLNLTDNLEIGKLEPYVVYRLAKAMFAGDADAIFISCTNLRTFEIIEKLERDLGVPVITSNQATLWMALRQIDVRDQLPLGKLLREY | soluble
MVKLLTINSHSWMEEDPQKKLEILGKTILENDYDVICVQEVNQLLHSEPAKDLPNYCQVAGTPAIHKDNYALQLVTFLLEQERVYYWSWAYNHIGYDRFQEGVAILSKTPLVSQGILISDVDDEHDYHTRRALLGKTKIDQEDIAIVSLHMSWWNKGFQGEWNKLERVLSNLKLPLLLMGDFNNPYENEGYQAILKSSLKLQDSHQSAKITYGKATIQKEIDGWQGNQEALKVDYVFLSSDWQVEKSEVIFDGKHYPMISDHCGLACQANLNK | not soluble
MPKIRIKLRGFDHKTLDASAQKIVEAARRSGAQVSGPIPLPTRVRRFTVIRGPFKHKDSREHFELRTHNRLVDIINPNRKTIEQLMTLDLPTGVEIEIKTVGGGR | soluble
MPDSMSEQLRRDMQCEGLLECFHGLKELDKECFRALVEAEEPLTVDELADAVDRERSTAYRAVQRLLQTGFIEKDQINYDQGGYYHVYSPTDPSQIADEMQRMLNDWYAKMGQLIQEFENKYEQSESTAPTVES | soluble
MGHHHHHHSHIHRIDSTEVIYQPRRKRAKLIGKYLMGDLLGEGSYGKVKEVLDSETLCRRAVKILKKKKLRRIPNGEANVKKEIQLLRRLRHKNVIQLVDVLYNEEKQKMYMVMEYCVCGMQEMLDSVPEKRFPVCQAHGYFCQLIDGLEYLHSQGIVHKDIKPGNLLLTTGGTLKISDLGVAEALHPFAADDTC | not soluble
MGSDKIHHHHHHMSNIKVLIQASSRSWAGGRDICMGLVNGEIAIVRTIKRALTAFPEAQFCLVAPEFDRGGELKGIVDEIADKRLQAFYGFDESPLSRMVAASSELKDDDFIVRVDGIHFCFDTNLSQQMVSLAQKNNLDCIKLPADFPVHFSSEVFRVGALRELVKILDKPELAKFHVHPKTYFELNRYDYKFEHLGSLPQYSDDYLRECRQLAQAIYEIPRQEVNSHRIASGDRLGYHYQLALKYLKSSMKVLDIACADGYGVRMMSTSLATVHGADLDPESVAYAKAHSSQKNVAFFVEDITDMSFDDDSYDAVTSFETLEHVPEEACLKELQRIIKPGGMLVLSTPQNSYGHIPVNSCHIVEYSLDYLLNLVGQYFHIVKVIGIKAGIIHDDADPYGTNTVLVCIKPIR | not soluble
KPKFFYIKSELNGKVLDIEGQNPAPGSKIITWDQKKGPTAVNQLWYTDQQGVIRSKLNDFAIDASHEQIETQPFDPNNPKRAWIVSGNTIAQLSDRDIVLDIIKSDKEAGAHICAWKQHGGPNQKFIIESE | soluble
MGSDKIHHHHHHMGHSLLFAVDVRPPHDVGVDGPRTASMCQNEVVADLKQRRPSVEQIIRIGIDTSKHVFQLHGVNAAEEPVLRKKLRRKEVVALFEKLSPTVVAIEACGGSHHWARLLQSFGHEVKLIPPQYVKPYVKRGKNDTADAEALCEAMSRPTMRFVPVKTAKQQAALMLVGLRDRLIRNRTQLANAIRGYAAEYGLIAARGMCKIEPLLERIAADKMLPDLARELFALHAKEYAQLQTQLKDVDAKLMAWHRAEACSQRLAQIPGVGPIGASLLVMKTPAPETFRSARHFAAWLGLTPKDHSTAGRVRLGVITRAGDEALRSVLVAGATAVIRHVRRGRGAVSPWLVDLLKRKPPKLAAVALANKIARIAWKLMVSGEIYGAKPMPPASARAA | not soluble
MGSDKIHHHHHHMKKGILIETDNVTRLRAAVKQAEDTERGRPGMVAVWGEAGAGKTIAAHSLYAQRGGVFLRAMEGMSQHAFLQELCWEVKGTRPHGSHRCRADILRALEEEPATVYVDEADRLDLRRLEDLRDIHDITGCPVVLIGEQHLPGKLAERTRIDDRIPEEYRVPFSGITPRDVSLFALEAAEIVLTPGAAGLIHKQAKGNFRRIHNLMLSVESAARAHDTTEVDEALVRAAMPAARSSASRAPRRGQHA | not soluble
MGSDKIHHHHHHMVLMPSPETIFIESGPLSARFRSDWGGRMTHLVHAEMGDILAPTQADVFEPYNWPRAGAYPLVPYHNRVYGASFVESGKTHRLLPHPALTPDAMHGPAHRRPWHVASAAEDRVTLQLNYEADDEWPFSFVAEQHFRLEPDRLIVELSIINSSDASAPVSLGWHPYLAVPLSSHAETDARLEYPLDALNVPTGNEAHPRSSRSIPAATGYTLHFRYWSTATVELDKGTLLLEADPIFEYLAVHRMEKYLCLEPVSMAAGALCLPETERESRGLRTILPEGRLSGRISLSIRG | not soluble
MYPDGLTENEKLKVKELCTMVNISDEDAIKLLKENDWDIAISSRRVSKQEDKTLVPGTSREEIDLDRLSSRLRVHGLAFYLPDFGGFPNEFRTFLEKDLIETQTQKRLEASRHLNWWHQFGQKLYPLSTTGDGNCLLHAASLGMWGVHDRQLSLRETLYELLTNGARKEAIRRRWKWVENHMNQSNGLALTLSENEWELEWDVVLGLSSPLPRKQEDNGSNSTDQIYESLEAIHVFALAHVLKRPVVVVSDTILRNAKGEELSPVAFGGIYLPLECPPSQCHRSPLVLCYDSAHFSPLVLMRTETNNKQIIPIIDVNRNLLPVHFAVDPGESFDWSKLETNSNTQTTTDMSQIDKLALISQYMDIIRLDVRRGSIRSSRRVRSAHAQLLTESRGENGQNLPQKSIKPRDLSAHSSDEQPSNNAKGMTLASSGIGSGRHEKWRLINEIRTHVLRTFRISSSTRGKEKLIDTDDCIARMNSTCVLASELLPTHHQYMDKIINEYMKSAKQRFQQNQRTQSDSRKRISRSFSASSLMLTCIGCDSEFKPASQVTNIMCDQCFAWQKMSVLTSNCDQFMGNSGPPCKSSTLPSFGSNDSNQNDKENIVEVLNVVPKDGAKTLTSMRAVEDENGVVHYYMDDEVADS | not soluble
